Test results reported in publication PMC5472279, “Genetic, structural, and chemical insights into the dual function of GRASP55 in germ cell Golgi remodeling and JAM-C polarized localization during spermatogenesis” (PLoS Genetics, 2017).
Ends that are not written are not given here. * marks the point of attachment. Biotin = O=C1N[C@H]2[C@H](CS[C@H]2CCCCC(=O)*)N1

Tests used:
Conditions in all cases: both partners purified
[1] = molecular target: T1, GST-GRASP55 FL (mGRASP55 Full-length, aa 2-451) (mouse, UniProt Q99JX3 2-451); experiment: AlphaScreen or HTRF + ITC; the text names HTRF or ITC for the values without telling which; GST-GRASP55 FL with JAM peptides; HTRF: biotinylated peptide competed with unlabeled peptide, 0.05 M HEPES, 0.15 M NaCl, 0.25% BSA pH 7.3, 18 h, 4°C; ITC: peptide in the syringe, protein in the cell, 100 mM NaPO4 pH 7.5, 25°C
T1 construct: GRASP55, mouse, aa 2-451, called full-length (FL); Forward primers with and without a thrombin cleavage site were used; also called full-length GRASP55 protein; source: E. coli BL21 (DE3), purified (Glutathione sepharose 4B); not shown: GST, N-terminal, kept

[2] = molecular target: T1, GST-GRASP55 FL (mGRASP55 Full-length, …); experiment: AlphaScreen or HTRF; GST fusion protein, anti-GST antibody coupled to terbium cryptate (1 nM), streptavidin-d2 (1.25 nM), biotinylated peptide (6 nM), competed with non-biotinylated peptide or the compound Graspin; 0.05 M HEPES, 0.15 M NaCl, 0.25% BSA pH 7.3, 18 h, 4°C
[3] = molecular target: T2, GST-GRASP55 FL (GST-tagged GRASP55 full-length, aa 2-451) (mouse, UniProt Q99JX3 2-451); experiment: ITC; GRASP55 protein in the cell (70-150 uM), JAM peptide in the syringe (800-2250 uM); 298 K (25 °C); 100 mM NaPO4 buffer pH 7.5; MicroCal ITC200; one-site fit
T2 construct: Gateway cloning into pDEST15; also called mGRASP55 Full-length (FL); Golgi reassembly stacking protein of 55 kDa; source: E. coli BL21 (DE3), purified (Glutathione sepharose 4B); not shown: GST, N-terminal, kept

[4] = molecular target: His-GRASP55 PDZ12 (Histidine-tagged PDZ tandem of GRASP55, aa 2-208) (mouse, UniProt Q99JX3 2-208); experiment: as above
[5] = molecular target: GRASP55 PDZ12, untagged PDZ tandem of GRASP55 (mouse, UniProt Q99JX3 2-208); experiment: as above

| Kd [1] [µM] | binding result [2] | stoichiometry N [3] | Kd [4] [µM] | stoichiometry N [4] | other results | Binder |
| --- | --- | --- | --- | --- | --- | --- |
| 4.9 |  |  |  |  |  | SKVTTMSENDFKHTKSFII (JAM-B, mouse, C-terminal 19-mer; the homologous non-biotinylated form of the printed biotinylated peptide; also called JAM-B peptide; source: synthetic peptide) [JAM-B_P19, peptide corresponding to the C-terminal 19-mer of mouse JAM-B (unlabeled)] |
| 3.7 |  |  |  |  |  | NYIRTSEEGDFRHKSSFVI (JAM-C, mouse, C-terminal 19-mer; the homologous non-biotinylated form of the printed biotinylated peptide; also called JAM-C peptide; source: synthetic peptide) [JAM-C_P19, peptide corresponding to the C-terminal 19-mer of mouse JAM-C (unlabeled)] |
| 27 |  |  |  |  |  | SQPSTRSEGEFKQTSSFLV (JAM-A, carboxy-terminal 19 amino acids; the homologous non-biotinylated form of the printed biotinylated peptide; source: synthetic peptide) [Unlabeled (non-biotinylated) JAM-A carboxy-terminal 19-mer peptide] |
|  | binds |  |  |  |  | Biotin-SQPSTRSEGEFKQTSSFLV (JAM-A, carboxy-terminal 19 amino acids; source: synthetic peptide (Covalab, France)) [Biotinylated 19-mer peptide of the carboxy-terminal sequence of JAM-A] |
|  | binds |  |  |  |  | Biotin-SKVTTMSENDFKHTKSFII (JAM-B, mouse, carboxy-terminal 19 amino acids; source: synthetic peptide (Covalab, France)) [Biotinylated 19-mer peptide of the carboxy-terminal sequence of JAM-B] |
|  | binds |  |  |  |  | Biotin-NYIRTSEEGDFRHKSSFVI (JAM-C, mouse, carboxy-terminal 19 amino acids; source: synthetic peptide (Covalab, France)) [Biotinylated 19-mer peptide of the carboxy-terminal sequence of JAM-C] |
|  |  | 0.8 | 14 ± 1 | 0.9 |  | SQPSTRSEGEFKQTSSFLV (Junctional Adhesion Molecule-A (JAM-A), carboxy-terminal 19 amino acids; source: synthetic peptide (Covalab, France)) [JAM-A peptide, carboxy-terminal 19-mer] |
|  |  | 1 | 7.1 ± 0.1 | 1 | Kd [5]: 3.8 ± 0.1 µM; stoichiometry N [5]: 1.1 | NYIRTSEEGDFRHKSSFVI (Junctional Adhesion Molecule-C (JAM-C), mouse, encoded by Jam3, carboxy-terminal 19 amino acids; source: synthetic peptide (Covalab, France)) [JAM-C peptide, carboxy-terminal 19-mer (JAM-C_P19)] |
|  |  | 0.9 | 1.2 ± 0.1 | 1.3 |  | SKVTTMSENDFKHTKSFII (Junctional Adhesion Molecule-B (JAM-B), mouse, carboxy-terminal 19 amino acids; source: synthetic peptide (Covalab, France)) [JAM-B peptide, carboxy-terminal 19-mer (JAM-B_P19)] |
